Source: publication PMC2289762 (The Journal of Cell Biology, 1992)

Biological target: the molecule itself
Test: cross-linking

B1: centromere protein B (CENP-B), full-size, from HeLa nuclei (natural protein)
chain: MGPKRRQLTFREKSRIIQEVEENPDLRKGEIARRFNIPPSTLSTILKNKRAILASERKYGVASTCRKTNKLSPYDKLEGLLIAWFQQIRAAGLPVKGIILKEKALRIAEELGMDDFTASNGWLDRFRRRHGVVSCSGVARARARNAAPRTPAAPASPAAVPSEGSGGSTTGWRAREEQPPSVAEGYASQDVFSATETSLWYDFLPDQAAGLCGGDGRPRQATQRLSVLLCANADGSEKLPPLVAGKSAKPRAGQAGLPCDYTANSKGGVTTQALAKYLKALDTRMAAESRRVLLLAGRLAAQSLDTSGLRHVQLAFFPPGTVHPLERGVVQQVKGHYRQAMLLKAMAALEGQDPSGLQLGLTEALHFVAAAWQAVEPSDIAACFREAGFGGGPNATITTSLKSEGEEEEEEEEEEEEEEGEGEEEEEEGEEEEEEGGEGEELGEEEEVEEEGDVDSDEEEEEDEESSSEGLEAEDWAQGVVEAGGSFGAYGAQEEAQCPTLHFLEGGEDSDSDSEEEDDEEEDDEDEDDDDDEEDGDEVPVPSFGEAMAYFAMVKRYLTSFPIDDRVQSHILHLEHDLVHVTRKNHARQAGVRGLGHQS
With B1 the “stoichiometry N” value was 2.
